Biological target: FANCI (human, UniProt Q9NVI1 1-1328)
Experiment: EMSA

Sequence of FANCI (Q9NVI1 whole entry): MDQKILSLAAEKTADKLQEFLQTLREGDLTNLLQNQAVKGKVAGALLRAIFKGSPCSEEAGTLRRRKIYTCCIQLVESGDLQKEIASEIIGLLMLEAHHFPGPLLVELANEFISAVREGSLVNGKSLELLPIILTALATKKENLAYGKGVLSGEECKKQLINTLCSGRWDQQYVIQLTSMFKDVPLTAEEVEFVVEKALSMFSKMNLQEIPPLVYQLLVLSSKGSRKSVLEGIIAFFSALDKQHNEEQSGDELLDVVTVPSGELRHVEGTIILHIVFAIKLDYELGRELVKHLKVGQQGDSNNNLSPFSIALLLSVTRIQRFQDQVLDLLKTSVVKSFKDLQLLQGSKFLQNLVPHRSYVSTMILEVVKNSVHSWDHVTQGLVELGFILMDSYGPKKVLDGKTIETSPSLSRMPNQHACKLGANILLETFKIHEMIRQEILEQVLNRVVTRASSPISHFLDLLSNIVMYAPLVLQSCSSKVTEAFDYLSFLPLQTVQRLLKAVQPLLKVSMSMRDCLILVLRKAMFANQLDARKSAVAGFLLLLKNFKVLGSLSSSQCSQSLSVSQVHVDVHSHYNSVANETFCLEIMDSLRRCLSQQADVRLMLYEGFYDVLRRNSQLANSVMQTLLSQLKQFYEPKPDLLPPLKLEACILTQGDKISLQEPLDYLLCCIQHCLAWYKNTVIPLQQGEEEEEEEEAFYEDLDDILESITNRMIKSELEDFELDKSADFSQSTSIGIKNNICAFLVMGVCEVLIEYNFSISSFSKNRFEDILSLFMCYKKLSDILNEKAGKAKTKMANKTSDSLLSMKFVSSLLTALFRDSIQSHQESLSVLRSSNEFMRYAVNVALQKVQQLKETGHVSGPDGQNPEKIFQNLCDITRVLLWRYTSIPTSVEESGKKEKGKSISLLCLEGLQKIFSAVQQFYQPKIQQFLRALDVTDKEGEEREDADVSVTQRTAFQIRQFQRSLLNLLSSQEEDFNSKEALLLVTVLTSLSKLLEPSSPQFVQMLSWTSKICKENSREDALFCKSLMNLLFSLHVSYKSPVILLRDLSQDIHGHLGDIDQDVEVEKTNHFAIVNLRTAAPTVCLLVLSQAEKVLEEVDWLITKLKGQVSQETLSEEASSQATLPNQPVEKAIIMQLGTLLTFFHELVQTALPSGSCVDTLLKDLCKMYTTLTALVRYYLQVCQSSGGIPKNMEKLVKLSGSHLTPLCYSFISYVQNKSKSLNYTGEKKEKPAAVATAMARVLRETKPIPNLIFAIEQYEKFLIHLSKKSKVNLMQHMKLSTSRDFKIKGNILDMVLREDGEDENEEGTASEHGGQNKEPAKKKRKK

B1: Splayed arm (O2+O9) (structured_DNA)
DNA 1: AAAAAAAAAAAAAAAAAAAAAAAAAAAAAAAAAAAAAAAAGTAGAGTCGACGGTGCTGGGATCCAACATGTTTTCAATCTG
DNA 2: CAGATTGAAAACATGTTGGATCCCAGCACCGTCGACTCTACAAAAAAAAAAAAAAAAAAAAAAAAAAAAAAAAAAAAAAAA
Q: Does B1 bind?
A: binds

From article PMC4027212
